# From the supplement of paper PMC9233669
# Fewer inactive variants are shown than the library holds.
# What was measured:
# biotinyl-Ile-oxazolone = assay: self-aminoacylation, catalytic enhancement (BIO) (fold over background); higher = more active; k-Seq, kA / k0A0; sequences stand for … in GGGAAUGGAUCCACAUCUACGAAUUC…UUCACUGCAGACUUGACGAAGCUG
# In short: (§1)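 Mutagenized RNA pools (0.43 μM; 21-nt variable region) were treated with 2–1250 μM of each biotinyl-aminoacyl-oxazolone. Conditions were 50 μL HEPES/NaCl/KCl/MgCl2/CaCl2 buffer, 5% acetonitrile, pH 6.9–7.0, room temperature, 90 minutes. Catalytic enhancement, the median kA relative to the uncatalyzed rate, was derived from streptavidin capture, qPCR and Illumina sequencing.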
# biotinyl-Leu-oxazolone = assay: self-aminoacylation, catalytic enhancement (BLO) (fold over background); higher = more active; k-Seq, kA / k0A0; sequences stand for … in GGGAAUGGAUCCACAUCUACGAAUUC…UUCACUGCAGACUUGACGAAGCUG
# In short: as §1
# biotinyl-Phe-oxazolone = assay: self-aminoacylation, catalytic enhancement (BFO) (fold over background); higher = more active; k-Seq, kA / k0A0; sequences stand for … in GGGAAUGGAUCCACAUCUACGAAUUC…UUCACUGCAGACUUGACGAAGCUG
# In short: as §1
# biotinyl-Val-oxazolone = assay: self-aminoacylation, catalytic enhancement (BVO) (fold over background); higher = more active; k-Seq, kA / k0A0; sequences stand for … in GGGAAUGGAUCCACAUCUACGAAUUC…UUCACUGCAGACUUGACGAAGCUG
# In short: as §1
# biotinyl-Trp-oxazolone = assay: self-aminoacylation, catalytic enhancement (BWO) (fold over background); higher = more active; k-Seq, kA / k0A0; sequences stand for … in GGGAAUGGAUCCACAUCUACGAAUUC…UUCACUGCAGACUUGACGAAGCUG
# In short: as §1
# biotinyl-Met-oxazolone = assay: self-aminoacylation, catalytic enhancement (BMO) (fold over background); higher = more active; k-Seq, kA / k0A0; sequences stand for … in GGGAAUGGAUCCACAUCUACGAAUUC…UUCACUGCAGACUUGACGAAGCUG
# In short: as §1
Sequence,self-aminoacylation (biotinyl-Ile-oxazolone),self-aminoacylation (biotinyl-Leu-oxazolone),self-aminoacylation (biotinyl-Phe-oxazolone),self-aminoacylation (biotinyl-Val-oxazolone),self-aminoacylation (biotinyl-Trp-oxazolone),self-aminoacylation (biotinyl-Met-oxazolone)
GUUCACCUAGGGCAUCGGGUG [Fam2.2 aminoacylation ribozyme variant],3.29,3.57,23.4,3.42,4.28,3.44
GUUCACCUAGGUCAUCGGGGG [Fam2.2 aminoacylation ribozyme variant],2.93,5.9,6.24,3.43,4.61,4.28
GUUCACCUAGGUCAUCUGGUG [Fam2.2 aminoacylation ribozyme variant],1.71,2.56,8.36,1.71,2.12,2.62
GUUCACCUAGGUCGUCGGGUG [Fam2.2 aminoacylation ribozyme variant],1.67,2.04,11,2.1,2.08,2.44
GUUCACGUAGGUCAUCGGGUG [Fam2.2 aminoacylation ribozyme variant],3.06,4.45,30.3,4.2,5.39,4.57
GUUCACUUAGGUCAUCGGGUG [Fam2.2 aminoacylation ribozyme variant],3.48,6.01,27.9,3.12,5.21,4.97
GUUCUCCUAGGUCAUCGGGUG [Fam2.2 aminoacylation ribozyme variant],6.21,13.7,55.1,6.51,9.42,9.55
UAGAUUGCUAAUAGUCGCAAG [Fam3.1 aminoacylation ribozyme variant],1.19,1.16,1.77,1.19,1.13,1.19
UAGUGUGCUAAUAGUCGCAAG [Fam3.1 aminoacylation ribozyme variant],1.83,1.21,2.94,1.76,2.19,1.88
UAGUUCGCUAAUAGUCGCAAG [Fam3.1 aminoacylation ribozyme variant],1.81,1.81,6.84,1.86,1.88,1.55
UAGUUUGCUAAUAGUCGAAAG [Fam3.1 aminoacylation ribozyme variant],1.33,1,6.07,1.15,3.49,1.09
UAGUUUGCUAAUAGUCGCAAC [Fam3.1 aminoacylation ribozyme variant],1.25,1.06,1.43,1.31,1.34,1.18
UAGUUUGCUAAUAGUCGCAAU [Fam3.1 aminoacylation ribozyme variant],1.52,1.28,3.04,1.61,1.88,1.38
UAGUUUGCUAAUGGUCGCAAG [Fam3.1 aminoacylation ribozyme variant],1.11,0.81,1.19,1.1,1.22,1.17
UAGUUUGCUAAUUGUCGCAAG [Fam3.1 aminoacylation ribozyme variant],1.25,1.39,1.62,1.17,1.51,1.29
UAUCACCUAGGUCAUCGGGUG [Fam2.2 aminoacylation ribozyme variant],3.72,4.88,15.1,3.88,5.87,4.75
UCACACUUAAAGCAAUCGGUC [Fam1B.1 aminoacylation ribozyme variant],0.86,0.761,0.642,0.844,0.575,0.737
UCACACUUCAAGCAAUAGGUC [Fam1B.1 aminoacylation ribozyme variant],0.671,0.495,0.918,0.668,0.559,0.434
UCACACUUCAAGCAAUCGGUC [Fam1B.1 aminoacylation ribozyme variant],0.996,1.43,49.8,1.2,22,0.998
UCACACUUCAAGCAAUCGGUU [Fam1B.1 aminoacylation ribozyme variant],1.3,1.6,8.21,1.58,6.74,1.48
UUACUUCAAACAAUAGGUCUG [Fam1A.1 aminoacylation ribozyme variant],1.2,1.08,1.69,1.25,1.07,1.26
UUACUUCAAACAAUCGUUCUG [Fam1A.1 aminoacylation ribozyme variant],0.996,0.983,2.05,0.975,1.05,1
UUACUUCAAACUAUCGGUCUG [Fam1A.1 aminoacylation ribozyme variant],1.25,1.04,1.25,1.08,1.26,0.916
UUCCACCUAGGUCAUCGGGUG [Fam2.2 aminoacylation ribozyme variant],5.71,7.41,48.6,5.42,7.67,7.25

Sequence,self-aminoacylation (biotinyl-Ile-oxazolone),self-aminoacylation (biotinyl-Leu-oxazolone),self-aminoacylation (biotinyl-Phe-oxazolone),self-aminoacylation (biotinyl-Val-oxazolone),self-aminoacylation (biotinyl-Trp-oxazolone),self-aminoacylation (biotinyl-Met-oxazolone)
UUGACCCUGGUCAUCGAGUGA [Fam2.1 aminoacylation ribozyme variant],7.37,19.1,129,7.21,18.7,19.9
UUUACACUGGUCAUCGAGUGA [Fam2.1 aminoacylation ribozyme variant],3.29,5.04,23.9,3,7.26,5.97
UUUACCAUGGUCAUCGAGUGA [Fam2.1 aminoacylation ribozyme variant],4.43,7.39,20.9,4.57,9.91,7.28
UUUACCCUCGUCAUCGAGUGA [Fam2.1 aminoacylation ribozyme variant],2.46,2.68,10.2,2.35,4.02,3.25
UUUACCCUGGACAUCGAGUGA [Fam2.1 aminoacylation ribozyme variant],2.68,4.69,14.9,3.1,5.78,4.86
UUUACCCUGGCCAUCGAGUGA [Fam2.1 aminoacylation ribozyme variant],2.06,3.97,16.7,2.52,5.04,3.22
UUUACCCUGGUCAUCGAGUGC [Fam2.1 aminoacylation ribozyme variant],2.52,6.26,16.5,2.99,5.5,6.81
UUUACCCUGGUCAUCGAUUGA [Fam2.1 aminoacylation ribozyme variant],1.06,1.08,0.947,1.13,1.09,0.837
UUUACCCUGGUCAUGGAGUGA [Fam2.1 aminoacylation ribozyme variant],2.58,3.04,9.54,2.44,3.99,3.46
UUUACCCUGGUCCUCGAGUGA [Fam2.1 aminoacylation ribozyme variant],1.96,3.67,17.8,2.58,4.06,4.26
UUUACCUUGGUCAUCGAGUGA [Fam2.1 aminoacylation ribozyme variant],3.93,5.86,18.6,4.04,8.55,5.9
UUUCACCAAGGUCAUCGGGUG [Fam2.2 aminoacylation ribozyme variant],5.54,10.3,58.3,6.02,10.2,9.41
UUUCACCCAGGUCAUCGGGUG [Fam2.2 aminoacylation ribozyme variant],3.32,4.54,35.1,4.69,5.64,4.86
UUUCACCUAGGUCAACGGGUG [Fam2.2 aminoacylation ribozyme variant],2.27,2.65,15.6,2.25,3.09,3
UUUCACCUAGGUCAUCAGGUG [Fam2.2 aminoacylation ribozyme variant],1.58,1.52,1.36,1.7,1.52,1.79
UUUCACCUAGGUCAUCCGGUG [Fam2.2 aminoacylation ribozyme variant],4.39,5.87,35.9,4.32,6.5,4.88
UUUCACCUAGGUCAUCGGGGG [Fam2.2 aminoacylation ribozyme variant],3.52,4.45,21.3,3.25,3.77,2.73
UUUCACCUAGGUCAUCGGGUG [Fam2.2 aminoacylation ribozyme variant],9.15,19.5,103,8.76,13.4,15.9
UUUCACCUAGGUCGUCGGGUG [Fam2.2 aminoacylation ribozyme variant],1.9,2.44,11.2,2.27,3,2.75
UUUCACCUCGGUCAUCGGGUG [Fam2.2 aminoacylation ribozyme variant],3.61,5.28,38.3,4.79,6.19,3.79
UUUCACCUUGGUCAUCGGGUG [Fam2.2 aminoacylation ribozyme variant],4.31,5.87,45.4,5.49,6.96,6.53
UUUCAUCUAGGUCAUCGGGUG [Fam2.2 aminoacylation ribozyme variant],4.37,6.45,33.7,4.51,6.47,5.04
UUUCCCCUGGUCAUCGAGUGA [Fam2.1 aminoacylation ribozyme variant],3.26,5.44,39.1,3.87,7.7,6.12
UUUCUCCUAGGUCAUCGGGUG [Fam2.2 aminoacylation ribozyme variant],5.35,9.78,32.5,5.4,8.02,7.74
